Assay [1] concerns the target T1, extracellular domain of the human leptin receptor (human, UniProt P48357 22-839).
T1 construct: extracellular domain; a tag is not mentioned for the ELISA and cross-linking experiments; also called hECD; recombinant leptin receptor extracellular domain
T1 sequence (looked up): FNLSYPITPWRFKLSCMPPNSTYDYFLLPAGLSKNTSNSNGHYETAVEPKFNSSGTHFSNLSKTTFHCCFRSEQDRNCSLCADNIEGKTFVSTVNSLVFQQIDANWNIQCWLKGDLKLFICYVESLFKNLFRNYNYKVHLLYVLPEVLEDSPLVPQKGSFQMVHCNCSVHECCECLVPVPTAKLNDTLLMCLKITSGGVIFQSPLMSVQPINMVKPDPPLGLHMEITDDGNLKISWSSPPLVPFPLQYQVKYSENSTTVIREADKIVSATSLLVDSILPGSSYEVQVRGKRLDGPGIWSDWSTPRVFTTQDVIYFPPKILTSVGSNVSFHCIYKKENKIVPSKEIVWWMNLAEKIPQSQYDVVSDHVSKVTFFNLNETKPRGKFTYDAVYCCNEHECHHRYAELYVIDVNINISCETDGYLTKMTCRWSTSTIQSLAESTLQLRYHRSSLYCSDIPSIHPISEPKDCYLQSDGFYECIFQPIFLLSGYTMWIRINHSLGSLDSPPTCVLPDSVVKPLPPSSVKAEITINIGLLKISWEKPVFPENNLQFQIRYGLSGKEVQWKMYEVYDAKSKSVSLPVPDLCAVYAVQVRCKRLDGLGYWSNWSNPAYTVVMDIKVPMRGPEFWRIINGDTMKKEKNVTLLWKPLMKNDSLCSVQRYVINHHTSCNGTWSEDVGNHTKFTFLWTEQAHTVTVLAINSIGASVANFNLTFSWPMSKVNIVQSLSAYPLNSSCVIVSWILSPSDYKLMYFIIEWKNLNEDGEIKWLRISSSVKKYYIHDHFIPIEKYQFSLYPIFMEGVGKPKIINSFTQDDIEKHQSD
Put plainly: SPR, Biacore T200; His-tagged leptin receptor ECD amine-coupled on a CM5 chip, binder as analyte. How it is done:
The SPR binding assays were performed using the Biacore T200™ (GE Healthcare). […] All manipulations were performed as described in the user guide of the manufacturer. The analysis of the results were processed in BIA evaluation Software™.
(In general: Surface plasmon resonance follows binding to a sensor surface in real time, without labels.)

Assay [2] deals with T1, extracellular domain of the human …. Briefly: SPR; leptin receptor ECD immobilized, antibody as analyte.
Assay [3] deals with T2, N terminal domain (NTD) of the leptin receptor extracellular domain, F22-Q121 (human, UniProt P48357 22-121).
T2 sequence: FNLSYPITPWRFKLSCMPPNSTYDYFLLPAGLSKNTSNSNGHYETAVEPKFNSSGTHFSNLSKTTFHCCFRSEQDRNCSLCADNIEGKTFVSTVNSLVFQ
Briefly: ELISA of S2H6 on purified subdomains of the leptin receptor extracellular domain, OD405; antibody concentration not given. The text has this: (§1) To test ability if the antibody to bind these domains, these subdomain were used in an ELISA-based biding assay.
For orientation: In an ELISA, binding on a coated surface is turned into a signal by an enzyme label.

Assay [4] addresses T3, first cytokine receptor homology domain (CRH1) of the leptin receptor extracellular domain, Q122-V333 (human, UniProt P48357 122-333).
T3 construct: Expressed and purified subdomain
T3 sequence: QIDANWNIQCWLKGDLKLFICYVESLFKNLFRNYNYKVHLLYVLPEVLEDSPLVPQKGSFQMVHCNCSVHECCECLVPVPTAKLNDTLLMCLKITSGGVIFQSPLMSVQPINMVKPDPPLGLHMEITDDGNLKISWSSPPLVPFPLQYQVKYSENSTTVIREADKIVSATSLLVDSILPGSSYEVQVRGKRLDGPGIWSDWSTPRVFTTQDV
Described as above.
Text: as §1

The target in assay [5] is T4, immunoglobulin-like domain (IgD) of the leptin receptor extracellular domain, I334-V427 (human, UniProt P48357 334-427).
T4 construct: Expressed and purified subdomain
T4 sequence: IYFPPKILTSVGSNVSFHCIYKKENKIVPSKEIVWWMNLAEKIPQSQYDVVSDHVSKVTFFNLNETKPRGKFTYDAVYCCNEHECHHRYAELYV
Described as above.
Text: as §1

Assay [6] addresses T5, fibronectin type III domains (FNIII) of the leptin receptor extracellular domain, I636-D839 (human, UniProt P48357 636-839).
T5 construct: Expressed and purified subdomain
T5 sequence: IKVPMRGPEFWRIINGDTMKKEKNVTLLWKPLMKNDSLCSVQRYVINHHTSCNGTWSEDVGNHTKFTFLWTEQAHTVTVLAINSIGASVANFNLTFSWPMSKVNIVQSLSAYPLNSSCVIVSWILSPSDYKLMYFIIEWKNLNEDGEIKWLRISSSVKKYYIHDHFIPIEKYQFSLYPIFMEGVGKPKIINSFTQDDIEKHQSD
The assay is described as above.
Text: as §1

Residue numbers refer to the chain shown, from its start.

B1: S1scAb06 (antibody, V domains shown)
VH: QVQLVESGGGVVQPGRSLRLSCAASGFTFSSYGMHWVRQAPGKGLEWVAVISYDGSNKYYADSVKGRFTISRDNSKNTLYLQMNSLRAEDTAVYYCAKSLRNSFDYWGQGTLVTVSS
VL: EIVLTQSPGTLSLSPGERATLSCRASQSVSSNYLAWYQQKPGQAPRLLIYGASSRPTGIPDRFSGSGSGTDFTLTISRLEPEDFAVYYCQQYAASPLTFGGGTKLEIK
notes: also called S1scAb6; 51scAb06
In assay [1], B1 displayed a Kd of 7.47 nM, a koff of 0.0516 s⁻¹ and an on-rate constant (kon) of 6.91e+06 M⁻¹ s⁻¹.

B2: S2H6 (antibody, V domains shown)
VH: B1 VH with V5L, E6Q, K98S, S99F, L100Q, R101E, S103Y, D105T
VL: B1 VL
notes: also called SC2H6
As for B2, the Kd in assay [2] and in assay [1] was 0.39 nM in each case. In addition, the dissociation rate constant (koff) in assay [2] and in assay [1] was 0.000308 s⁻¹ in each case. Besides, the association rate constant (kon) in assay [2] and in assay [1] was 786000 M⁻¹ s⁻¹ throughout. Besides, the binding result in assay [3], in assay [4], in assay [5] and in assay [6] was “no binding” in each case.

B3: S2H5 (antibody, V domains shown)
VH: B1 VH with V5L, E6Q, K98S, S99R, L100Y, R101E, S103Y, D105S, Y106L
VL: B1 VL
notes: also called SC2H5
In assay [2], B3 had a dissociation constant Kd of 0.626 nM, a koff of 0.000164 s⁻¹ and an association rate constant (kon) of 262000 M⁻¹ s⁻¹.

B4: S2H3 (antibody, V domains shown)
VH: B1 VH with V5L, E6Q, K98G, S99V, L100R, R101E, S103Y, D105T
VL: B1 VL
notes: also called SC2H3
In assay [2], B4 had a Kd of 0.429 nM, a koff of 0.0002 s⁻¹ and a kon of 466000 M⁻¹ s⁻¹.

B5: S2H7 (antibody, V domains shown)
VH: B1 VH with V5L, E6Q, K98T, S99R, L100Y, R101E, S103Y, D105S, Y106T
VL: B1 VL
notes: also called SC2H7
As for B5, in assay [2], the dissociation constant (Kd) stood at 0.639 nM, the koff came out at 0.000171 s⁻¹ and the on-rate (kon) stood at 268000 M⁻¹ s⁻¹.

B6: S2H2 (antibody, V domains shown)
VH: B1 VH with V5L, E6Q, K98T, S99F, L100R, R101E, S103Y, D105E
VL: B1 VL
notes: also called SC2H2; 52H2
In assay [2], B6 registered a Kd of 0.355 nM, a koff of 0.000119 s⁻¹ and a kon of 336000 M⁻¹ s⁻¹.

B7: S2H1 (antibody, V domains shown)
VH: B1 VH with V5L, E6Q, K98S, S99L, L100Y, R101E, S103Y, D105S, Y106L
VL: B1 VL
notes: also called SC2H1
In assay [2], B7 returned a Kd of 0.579 nM, an off-rate (koff) of 0.000271 s⁻¹ and a kon of 468000 M⁻¹ s⁻¹.

A word on the Kd: it is a measure of binding affinity in units of concentration. Read a low Kd as higher affinity. By koff is commonly meant the rate constant with which the complex falls apart. Low values mean a long-lived complex, high ones a short-lived complex. The kon is a measure of how fast the partners come together.

These data come from US20220275097A1 (SHANGHAITECH UNIVERSITY, published 2022).
